Experimental data as given in patent EP1997885A1 (AXXAM S.p.A., dated 2008).
Changes are numbered by the printed parent chain. Names and notes keep the numbering of the source. One block for each molecule: values may come before it.

Columns and labels:
[1] = target: recombinant (His6)-tagged EGFP; assay: size exclusion chromatography on Superdex 200, 2 mg/mL, self-association
[2] = target: recombinant (His6)-tagged DsRed2; assay: as above
[3] = target: AsGFP499(S103K), recombinant his-tagged (Anemonia sulcata); assay: pseudo-native SDS-PAGE, self-association
[4] = target: AsGFP499(S103K), recombinant his-tagged (Anemonia sulcata); assay: size exclusion chromatography on Superdex 200, 2 mg/mL, self-association
[5] = target: the molecule itself; assay: pseudo-native SDS-PAGE, self-association
[6] = target: AsGFP499(S103K/R150E), recombinant his-tagged (Anemonia sulcata); assay: size exclusion chromatography on Superdex 200, 2 mg/mL, self-association; first peak
[7] = target: AsGFP499(S103K/R150E), recombinant his-tagged (Anemonia sulcata); assay: size exclusion chromatography on Superdex 200, 2 mg/mL, self-association; second peak
[8] = target: AsGFP499(S94T/S103K/R150K/S171N/K206R), recombinant his-tagged (Anemonia sulcata); assay: size exclusion chromatography on Superdex 200, 2 mg/mL, self-association; first peak
[9] = target: AsGFP499(S94T/S103K/R150K/S171N/K206R), recombinant his-tagged (Anemonia sulcata); assay: size exclusion chromatography on Superdex 200, 2 mg/mL, self-association; second peak

Apparent MW [kDa] [1]: 27 kDa
Molecule: recombinant (His6)-tagged EGFP

Apparent MW [kDa] [2]: 79 kDa
Molecule: recombinant (His6)-tagged DsRed2

MW on pseudo-native SDS-PAGE [3]: < 50 kDa
Apparent MW [kDa] [4]: 39 kDa
B1: AsGFP499(S103K), recombinant his-tagged (protein, not shown: small tags and cut ends)
chain: MYPSIKETMRVQLSMEGSVNYHAFKCTGKGEGKPYEGTQSLNITITEGGPLPFAFDILSHAFQYGIKVFAKYPKEIPDFFKQSLPGGFSWERVSTYEDGGVLKATQETSLQGDCIICKVKVLGTNFPANGPVMQKKTCGWEPSTETVIPRDGGLLLRDTPALMLADGGHLSCFMETTYKSKKEVKLPELHFHHLRMEKLNISDDWKTVEQHESVVASYSQVPSKLGHN

B2: AsGFP499(S103K/F173E) (other)
chain: B1 chain with F173E
notes: Only tested on the pseudo-native gel; reported as partly monomeric; also called AsGFP499 (S103/F173E); not shown: tag and vector-encoded residues of the bacterial expression vector
binding result [5]: binds

Apparent MW [kDa] [6]: 39 kDa
Apparent MW [kDa] [7]: 23 kDa
B3: AsGFP499(S103K/R150E), recombinant his-tagged (protein, not shown: small tags and cut ends)
chain: B1 chain with R150E

Apparent MW [kDa] [8]: 39 kDa
Apparent MW [kDa] [9]: 23 kDa
B4: AsGFP499(S94T/S103K/R150K/S171N/K206R), recombinant his-tagged (protein, not shown: small tags and cut ends)
chain: B1 chain with S94T, R150K, S171N, K206R

B5: AsGFP499(S103K/T159K/F173E), recombinant his-tagged (other)
chain: B1 chain with T159K, F173E
notes: Reported as a monomer; not shown: (His6) tag and vector-encoded residues of pET28a(+)
binding result [5]: no binding

B6: AsGFP499(S94T/S103K/T159K/F173E), recombinant his-tagged (other)
chain: B1 chain with S94T, T159K, F173E
notes: as for B5
binding result [5]: no binding
